Data taken from patent US20260285984 (published 2026).

Biological target: PD-1 (human)
Test: SPR (range 50-70 nM)

PD-1 (human), sequence (chain, as listed by the source): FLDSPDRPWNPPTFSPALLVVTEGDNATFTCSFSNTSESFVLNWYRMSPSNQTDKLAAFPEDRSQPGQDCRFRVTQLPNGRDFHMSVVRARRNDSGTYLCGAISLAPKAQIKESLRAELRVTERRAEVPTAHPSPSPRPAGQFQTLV

B1: PD-1 agonist VHH (antibody, V domains shown)
VH: EVQLVESGGALVQPGGSLRLSCAASGFTFSSYAMTWVRQAPGKGPEWVSAIASDGASTSYLDSVKGRFTVSRDNAKNTLYLQMNSLKPEDTAVYYCARGGYLTYDRYGQGTQVTVSS
Kd: ~60 nM
